Data set [1] deals with HeLa Kyoto. As to the kind of experiment: melting temperature (median over replicates), in situ; higher = more thermally stable.
In data set [2] the test system is HeLa Kyoto. As to the kind of experiment: solubility change mitosis vs G1/S (difference of NP-40 vs SDS log2 ratios) (log2 ratio difference); higher = more soluble in mitosis.
The test system of data set [3] is HeLa Kyoto. As to the kind of experiment: thermal stability score vs G1/S (z-score of summed log2 fold changes over temperatures); higher = more thermally stable than in G1/S.
Data set [4] deals with HeLa Kyoto. Kind of data set: solubility in G1/S (NP-40 vs SDS abundance) (log2 ratio); higher = more soluble. As to conditions: cell cycle stage: G1/S.
[5] abbreviates: cell cycle stage: early G1 (4.5 h after nocodazole release).
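Throughout, for melting temperature (median over replicates), in situ: HeLa Kyoto cells synchronized by double thymidine or nocodazole block, proteins quantified by TMT10plex mass spectrometry, three independent biological replicates.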
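Throughout, for solubility change mitosis vs G1/S (difference of NP-40 vs SDS log2 ratios): synchronized HeLa Kyoto cells (double thymidine block for G1/S, nocodazole release for mitosis), protein amounts in NP-40 versus SDS lysates quantified by mass spectrometry, three biological replicates.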
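Throughout, for solubility in G1/S (NP-40 vs SDS abundance): HeLa Kyoto cells arrested at G1/S by double thymidine block, proteins quantified by TMT10plex mass spectrometry in mild NP-40 versus SDS extracts, three biological replicates.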
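Throughout, for thermal stability score vs G1/S (z-score of summed log2 fold changes over temperatures): synchronized HeLa Kyoto cells, proteins quantified by TMT10plex mass spectrometry, three biological replicates, mitosis taken 0.5 h after nocodazole release, G1/S directly after double thymidine block.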

“MAASLRLLGAASGLRYWSRRLRPAAGSFAAVCSRSVASKTPVGFIGLGNMGNPMAKNLMKHGYPLIIYDVFPDACKEFQDAGEQVVSSPADVAEKADRIITMLPTSINAIEAYSGANGILKKVKKGSLLIDSSTIDPAVSKELAKEVEKMGAVFMDAPVSGGVGAARSGNLTFMVGGVEDEFAAAQELLGCMGSNVVYCGAVGTGQAAKICNNMLLAISMIGTAEAMNLGIRLGLDPKLLAKILNMSSGRCWSSDTYNPVPGVMDGVPSANNYQGGFGTTLMAKDLGLAQDSATSTKSPILLGSLAHQIYRMMCAKGYSKKDFSSVFQFLREEETF [HIBADH]”: the melting temperature in the data set with HeLa Kyoto [1] (cell cycle stage: G1/S) is 55.4 °C; with HeLa Kyoto [1] (cell cycle stage: mitosis), 56.9 °C. The “solubility change mitosis (log2)” value in the data set on HeLa Kyoto [2] was -0.0734. The thermal stability score in the data set with HeLa Kyoto [3] (setting [5]) was 0.844; in the data set with HeLa Kyoto [3] (cell cycle stage: mitosis), -0.199. Also, the “solubility in G1/S (log2)” value in the data set with HeLa Kyoto [4] turned out to be 0.469.

As for “MAASPGPAGVGGAGAVYGSGSSGFALDSGLEIKTRSVEQTLLPLVSQITTLINHKDNTKKSDKTLQAIQRVGQAVNLAVGRFVKVGEAIANENWDLKEEINIACIEAKQAGETIAALTDITNLNHLESDGQITIFTDKTGVIKAARLLLSSVTKVLLLADRVVIKQIITSRNKVLATMERLEKVNSFQEFVQIFSQFGNEMVEFAHLSGDRQNDLKDEKKKAKMAAARAVLEKCTMMLLTASKTCLRHPNCESAHKNKEGVFDRMKVALDKVIEIVTDCKPNGETDISSISIFTGIKEFKMNIEALRENLYFQSKENLSVTLEVILERMEDFTDSAYTSHEHRERILELSTQARMELQQLISVWIQAQSKKTKSIAEELELSILKISHSLNELKKELHSTATQLAADLLKYHADHVVLKALKLTGVEGNLEALAEYACKLSEQKEQLVETCRLLRHISGTEPLEITCIHAEETFQVTGQQIISAAETLTLHPSSKIAKENLDVFCEAWESQISDMSTLLREINDVFEGRRGEKYGYLSLPKPMKNNANLKSLKPDKPDSEEQAKIAKLGLKLGLLTSDADCEIEKWEDQENEIVQYGRNMSSMAYSLYLFTRGEGPLKTSQDLIHQLEVFAAEGLKLTSSVQAFSKQLKDDDKLMLLLEINKLIPLCHQLQTVTKTSLQNKVFLKVDKCITKTRSMMALLVQLLSLCYKLLKKLQMENNGWVSVTNKDTMDSKT [CTNNAL1]”, the melting temperature with HeLa Kyoto [1] (cell cycle stage: G1/S) came out at 47.7 °C; in the data set on HeLa Kyoto [1] (cell cycle stage: mitosis), 48.9 °C. In addition, in the data set with HeLa Kyoto [2], the “solubility change mitosis (log2)” value is -0.111. Also, the thermal stability score in the data set with HeLa Kyoto [3] (setting [5]) was 0.258; in the data set with HeLa Kyoto [3] (cell cycle stage: mitosis), 1.63. In the data set on HeLa Kyoto [4], the “solubility in G1/S (log2)” value turned out to be 0.208.

Take “MAASSISSPWGKHVFKAILMVLVALILLHSALAQSRRDFAPPGQQKREAPVDVLTQIGRSVRGTLDAWIGPETMHLVSESSSQVLWAISSAISVAFFALSGIAAQLLNALGLAGDYLAQGLKLSPGQVQTFLLWGAGALVVYWLLSLLLGLVLALLGRILWGLKLVIFLAGFVALMRSVPDPSTRALLLLALLILYALLSRLTGSRASGAQLEAKVRGLERQVEELRWRQRRAAKGARSVEEE [TMEM109]”: the figures for the melting temperature in the data set on HeLa Kyoto [1] (cell cycle stage: G1/S) and with HeLa Kyoto [1] (cell cycle stage: mitosis) were 54.6 °C and 53.8 °C, respectively. Further, in the data set with HeLa Kyoto [2], the “solubility change mitosis (log2)” value was -0.14. For the same sequence, the thermal stability score with HeLa Kyoto [3] (setting [5]) is -3.9; in the data set on HeLa Kyoto [3] (cell cycle stage: mitosis), -4.03. In addition, the “solubility in G1/S (log2)” value in the data set on HeLa Kyoto [4] was -0.0444.

In the case of “MAASTGYVRLWGAARCWVLRRPMLAAAGGRVPTAAGAWLLRGQRTCDASPPWALWGRGPAIGGQWRGFWEASSRGGGAFSGGEDASEGGAEEGAGGAGGSAGAGEGPVITALTPMTIPDVFPHLPLIAITRNPVFPRFIKIIEVKNKKLVELLRRKVRLAQPYVGVFLKRDDSNESDVVESLDEIYHTGTFAQIHEMQDLGDKLRMIVMGHRRVHISRQLEVEPEEPEAENKHKPRRKSKRGKKEAEDELSARHPAELAMEPTPELPAEVLMVEVENVVHEDFQVTEEVKALTAEIVKTIRDIIALNPLYRESVLQMMQAGQRVVDNPIYLSDMGAALTGAESHELQDVLEETNIPKRLYKALSLLKKEFELSKLQQRLGREVEEKIKQTHRKYLLQEQLKIIKKELGLEKDDKDAIEEKFRERLKELVVPKHVMDVVDEELSKLGLLDNHSSEFNVTRNYLDWLTSIPWGKYSNENLDLARAQAVLEEDHYGMEDVKKRILEFIAVSQLRGSTQGKILCFYGPPGVGKTSIARSIARALNREYFRFSVGGMTDVAEIKGHRRTYVGAMPGKIIQCLKKTKTENPLILIDEVDKIGRGYQGDPSSALLELLDPEQNANFLDHYLDVPVDLSKVLFICTANVTDTIPEPLRDRMEMINVSGYVAQEKLAIAERYLVPQARALCGLDESKAKLSSDVLTLLIKQYCRESGVRNLQKQVEKVLRKSAYKIVSGEAESVEVTPENLQDFVGKPVFTVERMYDVTPPGVVMGLAWTAMGGSTLFVETSLRRPQDKDAKGDKDGSLEVTGQLGEVMKESARIAYTFARAFLMQHAPANDYLVTSHIHLHVPEGATPKDGPSAGCTIVTALLSLAMGRPVRQNLAMTGEVSLTGKILPVGGIKEKTIAAKRAGVTCIVLPAENKKDFYDLAAFITEGLEVHFVEHYREIFDIAFPDEQAEALAVER [LONP1]”, the values for the melting temperature in the data set with HeLa Kyoto [1] (cell cycle stage: G1/S) and in the data set with HeLa Kyoto [1] (cell cycle stage: mitosis) were 54.4 °C and 53.6 °C, respectively. In addition, in the data set with HeLa Kyoto [2], the “solubility change mitosis (log2)” value was -0.0806. The results for the thermal stability score in the data set on HeLa Kyoto [3] (setting [5]) and in the data set on HeLa Kyoto [3] (cell cycle stage: mitosis) were -0.58 and -1.35, respectively. For the same sequence, the “solubility in G1/S (log2)” value in the data set on HeLa Kyoto [4] came to 0.12.

With “MAASWRLGCDPRLLRYLVGFPGRRSVGLVKGALGWSVSRGANWRWFHSTQWLRGDPIKILMPSLSPTMEEGNIVKWLKKEGEAVSAGDALCEIETDKAVVTLDASDDGILAKIVVEEGSKNIRLGSLIGLIVEEGEDWKHVEIPKDVGPPPPVSKPSEPRPSPEPQISIPVKKEHIPGTLRFRLSPAARNILEKHSLDASQGTATGPRGIFTKEDALKLVQLKQTGKITESRPTPAPTATPTAPSPLQATAGPSYPRPVIPPVSTPGQPNAVGTFTEIPASNIRRVIAKRLTESKSTVPHAYATADCDLGAVLKVRQDLVKDDIKVSVNDFIIKAAAVTLKQMPDVNVSWDGEGPKQLPFIDISVAVATDKGLLTPIIKDAAAKGIQEIADSVKALSKKARDGKLLPEEYQGGSFSISNLGMFGIDEFTAVINPPQACILAVGRFRPVLKLTEDEEGNAKLQQRQLITVTMSSDSRVVDDELATRFLKSFKANLENPIRLA [PDHX]”, the melting temperature in the data set on HeLa Kyoto [1] (cell cycle stage: G1/S) was 53.5 °C; in the data set with HeLa Kyoto [1] (cell cycle stage: mitosis), 52.9 °C. For the same sequence, the “solubility change mitosis (log2)” value in the data set on HeLa Kyoto [2] was -0.00638. The thermal stability score in the data set on HeLa Kyoto [3] (setting [5]) was -1.5; in the data set with HeLa Kyoto [3] (cell cycle stage: mitosis), -1.54. In the data set on HeLa Kyoto [4], the “solubility in G1/S (log2)” value came to 0.248.

For the origin of these results see the supplement of paper PMC5998384.
